Our source for the Kd values is PMC3085951 (Journal of controlled release : official journal of the …, 2011).

Assay [1] addresses T1, MT1-160p (MT1-MMP amino acids 160-174) (human).
T1 peptide: REVPYAYIREGHEKQ
As to the kind of experiment: ELISA.

Assay [2] addresses recombinant human MT1-MMP catalytic domain (human, UniProt P50281 114-287). In words: ELISA. (In general: ELISA stands for enzyme-linked immunosorbent assay.)

Broadly, the Kd is the equilibrium constant for the complex coming apart. In the case of HWKHLHNTKTFL [phage-displayed MT1-AF7p], the affinity in assay [1], expressed as Kd, was 0.075 nM.

HWKHLHNTKTFL [MT1-AF7p]: in assay [2], the Kd was 47.4 nM.
